Experimental data taken from US9592281B2, “Method for inducing immunity with a peptide fragment from human CAPRIN-1” (Toray Industries, Inc., priority 2008, dated 2017).
Residues, ends and D or L forms follow the SMILES beside them.

What was measured:
[1] = test system: HLA-A24+ JTK-LCL cells
Description: Chromium-51 was incorporated into the HLA-A24+ JTK-LCL cells expressing the human CAPRIN-1 polypeptide, HLA-A24+ and peptide epitope-reactive CD8+ T cells were added, culture was conducted, and the amount of chromium-51 in the culture supernatant released from the disrupted cells was measured.
(§1) The cytotoxic activity used herein means the cytotoxic activity of the CD8+ T cells against the U-87MG cells or the JTK-LCL cells (i.e., target cells) determined according to the following equation*. Cytotoxic activity (%)=amount of chromium-51 released from U-87MG or JTK-LCL cell upon addition of CD8+ T cell/amount of chromium-51 released from target cell upon addition of 1N hydrochloric acid×100 Equation*

[2] = test system: U-87MG human glioma cells
Description: 10^6 cells of U-87MG human glioma cells (purchased from ATCC), which were verified to express the human CAPRIN-1 polypeptide, were collected in a 50-ml centrifuge tube, 100 μCi chromium-51 was added, and incubation was carried out at 37° C. for 2 hours. Thereafter, the cells were washed 3 times with RPMI medium (Gibco) containing 10% fetal bovine serum (hereafter referred to as “FBS,” Gibco) and added to a 96-well V-bottom plate in amounts of 10^3 cells/well. Further, 5×10^4 HLA-A0201+ and peptide epitope-reactive CD8+ T cells stimulated with the peptides suspended in RPMI medium containing 10% FBS were added, and culture was conducted at 37° C. in 5% CO2 for 4 hours. After the culture, the amount of chromium-51 in the culture supernatant released from the disrupted tumor cells was measured to determine the cytotoxic activity of the peptide-stimulated CD8+ T cells.
as §1

[3] = test system: human breast cancer cell line, MDA-MB-231V; assay: Flow cytometry reactivity of monoclonal antibodies with breast cancer cell surface; type: cell-based; settings: 10^6 MDA-MB-231V cells; control with medium instead of antibody
Description: Subsequently, monoclonal antibodies having reactivity with the surfaces of the breast cancer cells expressing CAPRIN-1 were selected from among the above monoclonal antibodies. Specifically, 10^6 cells of human breast cancer cell line, MDA-MB-231V, were centrifuged in a 1.5-ml microcentrifuge tube, 100 μl of the hybridoma supernatants prepared above was added thereto, and the resultants were allowed to stand on ice for 1 hour. After the plate was washed with PBS, the FITC-labeled goat anti-mouse IgG antibody (Invitrogen) diluted 500-fold with PBS containing 0.1% fetal bovine serum was added, and the plate was allowed to stand on ice for 1 hour. After the plate was washed with PBS, fluorescence intensity was measured using the FACSCalibur (Becton Dickinson). Separately, as a control, the same procedure was carried out except for adding a medium instead of the antibodies. […] The sequence of the heavy-chain variable region of one of such monoclonal antibodies is shown by SEQ ID NO: 78 and that of the light-chain variable region thereof is shown by SEQ ID NO: 79.

[4] = test system: tumor of cancer-bearing dog (breast cancer); assay: Antitumor evaluation of recombinant protein in cancer-bearing dog; type: in vivo; settings: dog with breast cancer; for tumor size: tumor about 86 mm^3 at administration, 100 μg with Freund's incomplete adjuvant, 3 times to regional lymph node
Description: A cancer-bearing dog (breast cancer) having a tumor on the epidermis was subjected to evaluation of the antitumor effects of the recombinant protein purified above.
The recombinant polypeptide having the amino acid sequence shown by SEQ ID NO: 6 purified in the above-described manner (100 μg, 0.5 ml) was mixed with the equivalent amount of the Freund's incomplete adjuvant (Wako Pure Chemical Industries, Ltd.) to prepare a cancer therapeutic agent. The resulting agent was administered 3 times in total to the regional lymph node in the vicinity of the tumor, as an initial-administration, and 3 days and 7 days thereafter.
Also, 100 μg of canine interleukin 12 was administered together with the agent subcutaneously.
Further, a mixture of 0.5 ml of the recombinant polypeptide having the amino acid sequence shown by SEQ ID NO: 8 and 0.5 ml of the Freund's incomplete adjuvant was administered to another dog having breast cancer 3 times in total in the same manner as described above. Also, 100 μg of canine interleukin 12 was administered together with the agent subcutaneously.

[5] = test system: canine peripheral blood mononuclear cells; assay: ELISpot assay of IFNγ using peripheral blood mononuclear cells of administered dogs; type: cell-based, dog; settings: 5×10^5 cells/well, restimulated with the administered polypeptide 24 hours, no spots before administration
Description: 70% ethanol was added to a 96-well plate (MultiScreen-IP, MAIPS4510, Millipore) in amounts of 100 μl/well, the plate was allowed to stand for 5 minutes, ethanol was aspirated off, the plate was washed with sterilized water, 200 mM sodium bicarbonate (pH 8.2) was added in amounts of 300 μl/well, the plate was allowed to stand for 5 minutes, sodium bicarbonate was aspirated off, and the plate was washed. Subsequently, the anti-canine interferon γ monoclonal antibody (clone142529, MAB781, R&D) added to 200 mM sodium bicarbonate was added to the plate in amounts of 0.5 μg/well, incubation was carried out at 37° C. overnight, and the primary antibody was solid-phased. After the primary antibody in the solution was aspirated off, a blocking solution (1% BSA-5% sucrose-200 mM sodium bicarbonate, pH 8.2) was added in amounts of 300 μl/well, and incubation was carried out at 4° C. overnight to block the plate. After the blocking solution was aspirated off, RPMI medium containing 10% fetal bovine serum (Invitrogen) was added in amounts of 300 μl/well, the plate was allowed to stand for 5 minutes, and the medium was aspirated off. Thereafter, canine peripheral blood mononuclear cells suspended in RPMI medium containing 10% fetal bovine serum were added to the plate in amounts of 5×10^5 cells/well, the dog-derived polypeptide or human-derived polypeptide used for administration were added thereto in amounts of 10 μl/well, and culture was conducted at 37° C. in 5% CO2 for 24 hours to produce interferon γ from immunocytes among peripheral blood mononuclear cells. After culture was conducted, the medium was removed, and wells were washed 6 times with a wash (0.1% Tween 20-200 mM sodium bicarbonate, pH 8.2). The rabbit anti-dog polyclonal antibodies diluted 1,000-fold with the blocking solution were added to the plate in amounts of 100 μl/well and then incubated at 4° C. overnight. After the wells were washed 3 times with the wash, the HRP-labeled anti-rabbit antibodies diluted 1,000-fold with the blocking solution were added to the plate in amounts of 100 μl/well, and the reaction was allowed to proceed at 37° C. for 2 hours. After the wells were washed 3 times with the wash, a color was developed with the aid of a Konica immunostain (Konica), and the wells was washed with water to terminate the reaction. After the reaction was terminated, the membrane was dried, and the number of the developed spots was counted using the KS Elispot (Carl Zeiss).

[6] = 10 days after the administration
[7] = 30 days after the administration

## CSCC[C@H](NC(=O)[C@@H](NC(=O)[C@H](CCC(N)=O)NC(=O)[C@H](CS)NC(=O)[C@H](CO)NC(=O)[C@H](Cc1ccc(O)cc1)NC(=O)[C@H](CO)NC(=O)[C@@H](N)CCCNC(=N)N)C(C)C)C(=O)N[C@@H](Cc1c[nH]cn1)C(=O)N[C@@H](CCC(=O)O)C(=O)O [SEQ ID NO: 77] (H-RSYSCQVMHE-OH)
[1]
  cytotoxic activity of peptide-stimulated CD8+ T cells against JTK-LCL cells: did not exhibit cytotoxicity
[2]
  cytotoxic activity of peptide-stimulated CD8+ T cells against U-87MG cells: did not show cytotoxic activity

B1: monoclonal antibody against CAPRIN-1 having the heavy-chain variable region of SEQ ID NO: 78 and the light-chain variable region of SEQ ID NO: 79: mouse monoclonal antibody against human CAPRIN-1 … (antibody, listed as Mus musculus, V domains shown)
VH: PRASLGVSETLLCTSGFTFTDYYMSWVRQPPGKALEWLGFIRNKANGYTTEYSASVKGRFTISRDNSQSILYLQMNTLRAEDSATYYCARANWAFDYWGQGTTVTVSSK
VL: SGDRVSLSCRASQSISNYLHWYQQKSHESPRLLIKYASQSISGIPSRFSGSGSGTDFTLSINSVETEDFGMYFCQQSNSWPYTFGGGTKLEIKQ
notes: mouse monoclonal antibody against human CAPRIN-1 reacting with breast cancer cell surfaces
[3]
  reactivity with breast cancer cell surface (fluorescence intensity, FACS): reacts with the cancer cell surface

B2: SEQ ID NO: 6: recombinant polypeptide having the amino acid sequence shown by SEQ ID NO: 6 (canine CAPRIN-1), expressed in E. coli (protein, listed as Canis familiaris)
chain: MALSQDIQKTIKKTARREQLMREEAEQKRLKTVLELQYVLDKLGDDEVRTDLKQGLNGVPILSEEELSLLDEFYKLADPERDMSLRLNEQYEHASIHLWDLLEGKEKSVCGTTYKALKEIVERVFQSNYFDSTHNHQNGLCEEEEAASAPTVEDQVAEAEPEPAEEYTEQSEVESTEYVNRQFMAETQFSSGEKEQVDEWTVETVEVVNSLQQQPQAASPSVPEPHSLTPVAQADPLVRRQRVQDLMAQMQGPYNFIQDSMLDFENQTLDPAIVSAQPMNPTQNMDMPQLVCPPVHSESRLAQPNQVPVQPEATQVPLVSSTSEGYTASQPLYQPSHATEQRPQKEPIDQIQATISLNTDQTTASSSLPAASQPQVFQAGTSKPLHSSGINVNAAPFQSMQTVFNMNAPVPPVNEPETLKQQNQYQASYNQSFSSQPHQVEQTEGCRK
[4]; 10 days after the initial administration
  tumor size: 55 mm^3
[4]; 20 days after the initial administration
  tumor size: 30 mm^3
[4]; 30 days after the initial administration
  tumor size: 20 mm^3
[5]; [6]
  number of IFNγ spots detected in peripheral blood mononuclear cells: 13 spots
[5]; [7]
  number of IFNγ spots detected in peripheral blood mononuclear cells: 82 spots

B3: SEQ ID NO: 8: recombinant polypeptide having the amino acid sequence shown by SEQ ID NO: 8 (canine CAPRIN-1), expressed in E. coli (protein, listed as Canis familiaris)
chain: MPSATSLSGSGSKSSGPPPPSGSSGSEAAAAAGAAGAAGAGAAAPASQHPATGTGAVQTEAMKQILGVIDKKLRNLEKKKGKLDDYQERMNKGERLNQDQLDAVSKYQEVTNNLEFAKELQRSFMALSQDIQKTIKKTARREQLMREEAEQKRLKTVLELQYVLDKLGDDEVRTDLKQGLNGVPILSEEELSLLDEFYKLADPERDMSLRLNEQYEHASIHLWDLLEGKEKSVCGTTYKALKEIVERVFQSNYFDSTHNHQNGLCEEEEAASAPTVEDQVAEAEPEPAEEYTEQSEVESTEYVNRQFMAETQFSSGEKEQVDEWTVETVEVVNSLQQQPQAASPSVPEPHSLTPVAQADPLVRRQRVQDLMAQMQGPYNFIQDSMLDFENQTLDPAIVSAQPMNPTQNMDMPQLVCPPVHSESRLAQPNQVPVQPEATQVPLVSSTSEGYTASQPLYQPSHATEQRPQKEPIDQIQATISLNTDQTTASSSLPAASQPQVFQAGTSKPLHSSGINVNAAPFQSMQTVFNMNAPVPPVNEPETLKQQNQYQASYNQSFSSQPHQVEQTDLQQEQLQTVVGTYHGSQDQPHQVTGNHQQPPQQNTGFPRSSQPYYNSRGVSRGGSRGARGLMNGYRGPANGFRGGYDGYRPSFSNTPNSGYTQSQFSAPRDYSGYQRDGYQQNFKRGSGQSGPRGAPRGRGGPPRPNRGMPQMNTQQVN
[4]; with Freund's incomplete adjuvant, 3 times, plus 100 μg canine interleukin 12 subcutaneously, tumor at administration about 123 mm^3 (SEQ ID NO: 2), about 96 mm^3 (SEQ ID NO: 8)
  tumor completely regressed, time after the initial administration: 27 days
[5]; [6]
  number of IFNγ spots detected in peripheral blood mononuclear cells: 32 spots
[5]; [7]
  number of IFNγ spots detected in peripheral blood mononuclear cells: 117 spots
